In the DeepSol protein solubility set:

Experiment: soluble on expression in E. coli; label from the status in PepcDB or PDB records

Row | Sequence | soluble on expression in E. coli
1 | MGSSHHHHHHHHDYDIPTTENLYFQGSELSSLTAVSPVDGRYGDKVSALRGIFSEYGLLKFRVQVEVRWLQKLAAHAAIKEVPAFAADAIGYLDAIVANFSEEDAARIKTIERTTNHDVKAVEYFLKEKVAEIPELHAVSEFIHFACTSEDINNLSHALMLKTARDEVILPYWRQLIDGIKDLAVQYRDIPLLSRTHGQPATPSTIGKEMANVAYRMERQYRQLNQVEILGKINGAVGNYNAHIAAYPEVDWHQFSEEFVTSLGIQWNPYTTQIEPHDYIAELFDCVARFNTILIDFDRDVWGYIALNHFKQKTIAGEIGSSTMPHKVNPIDFENSEGNLGLSNAVLQHLASKLPVSRWQRDLTDSTVLRNLGVGIGYALIAYQSTLKGVSKLEVNRDHLLDELDHNWEVLAEPIQTVMRRYGIEKPYEKLKELTRGKRVDAEGMKQFIDGLALPEEEKARLKAMTPANYIGRAITMVDELK | soluble
2 | MPLIFAPFAADLARRAAALMPIDVLEIAAGTGAVTREMIPRLLPAAHYVVTDLNQPMLDFAAAQQAPDNRIKWRQADAQLLPFENAVFDLVFCQFGAMFFNDRLSAYREAKRVLKPGGHYLFNVWDRIEENHFADDVTNALAGLFPDDPPRFMARTPHGYHDTVLIRRELENAGFSRVTVETVAAQSRAPSPRIPAVAYCQGTVLRTEIEARAPGKLNAATDCAAAAIEARHGKGEVAAKIKAHVILAAV | not soluble
3 | MKDWFMNLLYYLKRPFIRLSRFRYRCGYGVHSPFAFSLITDVIYEKMPYYAYDLLKVEQKKRITTQRWEKGIPRINRLLFRLVNKVQPATIIEVGQPSAASLYLQSAKPSAGYLFASDLSELFLDADTPVDFLYLNDYRNPALLEEVFNICSRRTTPNSLFVVHGICYSKAMKNLWKQLQNDERVGITFDLYDAGLLFFDTTKIKQHYIVNF | not soluble
4 | MGSDKIHHHHHHTEDTFWKDETDFNLALTSCYTPLKNALNGGYYGTRGVMLRIARADEVDFRNDISDVYTVNRFTNSNTNSLTQGMFYQFYNALYRTNSIMQKLEEKKEQFSTDFQNSVKGECLFIRGFYLFQLAKEFKDAPLRLTASQSPSTFPLAKSSQADIWAQAKEDLKTAASLLPITNKIGKPTQGAAYAALGKIYVYEENWQEAINVLEPLTQNPYTYKLVEDFNWNFDDTHENNAESIFELLIEDVGGTDLWGDGENINSTQSNTRPKEYAAAEVGGWYEANPTQQIMDIFWKEKDKDGNFDYRARCSVAWDYEGCTYYQRPFREVFAQDKWKTYWILKYQNWKTQKDEPAPPKSFINERAIRYADVLLMLAEAYMNKGALDTSIGYINQIRRRANLNDYSGPITKEGVFEDLVHQRAIEFFVEGERFYDLRRWGLLEQTLKTCDDTRYKNYQTGKSDNINKFNYFPIPAKELDTNPLCTPSEGW | not soluble
5 | MWAFRTARIGSLLAATSVILRRCLRLGVAMAKSKFEYVRNFEVQDTCLPHCWVVVRLDGRNFHRFAEEHNFAKPNDSRALHLMTKCAQTVMEELEDIVIAYGQSDEYSFVFRKKSNWFKRRASKFMTLVASQFASSYVFYWRDYFEDQPLRYPPGFDGRVVLYPSNQTLKDYLSWRQADCHINNLYNTVFWALIQQSGLTPVQAQQRLKGTLTADKNEILFSEFHINYNNEPHMYRKGTVLVWQKVEEVRTQEVRLPAEMEGEKKAVARTRTRVVALNCDLIGDAFWKEHPEILAEEN | soluble
6 | MGSDKIHHHHHHMIRKHFKGYNFVCIPETGVTFRWGDSIAEDPYMAPWPELADISISNYCTNGCEYCYRASNEEGIFMTVADYKFILGQLTSKEYGSIFQVALGGGEPLLHPDFNEILHVTREEYGIIPNYTTCGKYFNQKNMEASKKYCGAVAVSWDPYRDNLSLEELRELGVQLKEEKIRTNIHYVISERTLIEAIKLLKGKYDEYLKDFNSVIFLTYKAAGRADKSDVIKSQKYLREFLDMVDAPLTKLKLGFDACFVPVLMKATGVDTDLVDSCECGFFSVYVSESMEVMPCSFCNNSNFTYNLKDLCFKDIWQKHFSAYRSYVNDNCKTGCAECDERSGCRGKCSFYNDIYLCNLV | not soluble
7 | GSVAVEDQPDVSAVLSAYNQQGDPTMYEEYYSGLKHFIECSLDCHRAELSQLFYPLFVHMYLELVYNQHENEAKSFFEKFHGDQECYYQDDLRVLSSLTKKEHMKGNETMLDFRTSKFVLRISRDSYQLLKRHLQEKQNNQIWNIVQEHLYIDIFD | soluble
8 | MRFAPFTRQRHHNREQIKQHPEWFPAPLKASDRRWQALAENNHFLSSDHLHNITEVAIHRLEQQLGKPYVWGGTRPDQGFDCSGLVFYAYNKILEAKLPRTANEMYHYRRATIVANNDLRRGDLLFFHIHSREIADHMGGYLGDGQFIESLRTGETIRVSRLAEPFWQDHFLGARRILTEEMIL | not soluble
9 | MVDKIIFTVTPIFSIPPRGAAAVETWMYQVAQRTNFPNRIVCIKNPGYSNYTFVNDNCSIHRVGFSRIYKRLFQKWTRLDPLPYSQRILNIAHDFPITKESVIVVHNSMKLYTQIRKRAPQARVVIHMHNAFEPKLLEQNVKMIVPSLYLKKYYQSYLANADIEIVPNGIDLETYQSNFQPITRSELNISPEEKIIFYAGRIVPDKGILLLMQSFEKLAAAHKNLKLVVIGDYTEMSKSDKGAYQRNVREIAKRLKDRCIMLGSIPPEKMHCYYPLADLVVIPSQFQEPFCMVAIEAMGAGKPVLVSTRGGMTEFVKENTTGFHLKEPMTADSISSDILKTLANPELTAVAKQGQDFVFDHYSWDGVTQRFEEVIHNWFE | not soluble
10 | MSEEWEPKIVGFCCNWCTYGGADTAGVGRMQYPPSIRIIRVMCSGRIEPSFILKAFKEGADGVFIGGCHLGDCHYDAGNYKWQRRVMMLYDMLDELGIGRERVLHEWISASEGEKFQTKMNEIYDRIKALGPCTLNENLK | not soluble
11 | MGKVLVIYDTRTGNTKKMAELVAEGARSLEGTEVRLKHVDEATKEDVLWADGLAVGSPTNMGLVSWKMKRFFDDVLGDLWGEIDGKIACAFSSSGGWGGGNEVACMSILTMLMNFGFLVFGVTDYVGKKFTLHYGAVVAGEPRSEEEKEACRRLGRRLAEWVAIFVDGRKELLEKIRKDPARFVD | soluble
12 | MSIWKEAKDASGRIYYYNTLTKKSTWEKPKELISQEELLLRENGWKAAKTADGKVYYYNPTTRETSWTIPAFEKK | soluble
13 | MSLRWEGTEEEAYKAEGTHFSGARRQTLVGRPAGQEAPAFETRYFEVEPGGYTTLERHEHTHVVMVVRGHAEVVLDDRVEPLTPLDCVYIAPHAWHQIHATGANEPLGFLCIVDSDRDREGHHHHHH | not soluble
14 | MPGTPIPMGRQTHRAHSASGFYTPHVSKLKTNYDREFQKFLRSAKTAIDHLDKIEMQILCPLKKKIKRFHKESNTLDVYFRSQTYWRSFYKELMNRSDDVMDCFRFEDLRDVAAVVESHRLPDVLVSFVTQQLMEWRELFKDVEWMRKFRELSHNMDSLKTKRIEHVLRQDIIREIGVAIDVHNLKIDDFRSHSNNTERVAEGIAHAIEESKNKQDAGNQLKHVPVLSKQMSVRRWYREHYGDPQALSDESDEESLSDGDNSSLFVGTADSSSRDASDISTEEVVTENEFDEFFN | not soluble
15 | MDITNLIELETICLDLKAQTKDEALKELVEMLEAAGKLNSQSQFLADIWKREEIGNTGFDDGIAIPHAKSDAVAKPAVAVGISRNGIDYGAEDGELSDVFFMLASPDGDDHHHIEVLAQISTKIIEDGFVEKLKQAQSREEALEMLTDIQTQSNEFLPTSLEFASEPLSPWAQKLGRIKEH | not soluble
16 | MIQRDIEYSGQYSKDVKLAQKRHKDMNKLKYLMTLLINNTLPLPAVYKDHPLQGSWKGYRDAHVEPDWILIYKLTDKLLRFERTGTHAALFGLEHHHHHH | soluble
17 | MIRQRRRALTPEQQQEMGQQAATRMMTYPPVVMAHTVAVFLSFDGELDTQPLIEQLWRAGKRVYLPVLHPFSAGNLLFLNYHPQSELVMNRLKIHEPKLDVRDVLPLSRLDVLITPLVAFDEYGQRLGMGGGFYDRTLQNWQHYKTQPVGYAHDCQLVEKLPVEEWDIPLPAVVTPSKVWEWMGHHHHHHSH | not soluble
18 | MKYEVVITSGNSNQAPIGAFFKGDFVTLHLYGGSHTFENLQKDGFYILNTCSPYLIAKSVLDDAGDYEYLDNDGIKIPYLKDSYKIELIEIKSRKIVETKNEFGSSKLMIVEGKPIFEKILNCNTSAYNRADGAVVEMAVLYSRKNMISKEEINDEITRLMKIIKKVGSKNHIELAKKLGV | soluble
19 | MGSDKIHHHHHHVHACGAETAPRCVTSYPFAQMPTAQTKKEKRPPASIESRIAECYDELSEIDQRLADVILSAPGQLAMQTATELASSAQVSKATATRFFQKLGYASYDDARAIARAAQVGGSPLYLQDRGRKTAGSKLDDVIQRHLQHEVENMANTYRSLDTQVLSEVVDAIAQARRVAIIGYRHSYTVATMIRRELIQVRSDVMLLPAPGDTIGEYLADLNAKDLAIVIGLRRRVPAVGLATAALAEAGVPVVYMSDVIAGKPARLARWVIRCHTDGLMLFDSKAGMTAVVNLICSLVAERVLDRSNSHLQRVEVLHDSLRELE | not soluble
20 | MGSDKIHHHHHHMETTKLGNLKLYGAGHAAGGAYHNVSIKGEGIVGEGLSAVGCRIYGTGLFLGKAETERLRVLGESECKGDLTAGKINIYGTMKVSGSLQFDRFNLKGQTEIGGNMTGESCDVKGKLSVIGDCETEMFHVTGCVDVSGLLNSGEIKLGLSHDINHVQEIGGTTITVKRRASFFSRKKGKLIADVIEGDRVYLENTEAAVVRGKEVIIGPGCSIGTIEYEYKCECDPHSQIKEKTKL | not soluble
21 | MNSHDGSNFSNKFSAHKDVVEDLLRKDTVGLVTFQDFRARREYLERCAVAEAACQNASRRAEELETKKKRVKRANLSRLSFGDSLEDQEENSVEFAKITRFASSKKANGVGFNTSGQDIVKEPDVFSPKEEGFFGKQNRKIGMDPGVDTSFLPDRDREQEERLERERLKQQWLSEQERVKNEEIDIIYSIWDGRGQRKLLSCKKGTTIAKFLSIVQQKVSTLKHCKVEDLMFIKEDMIIPHHLSFYDLISMKARGKNGSLFCFDVHEDIRIRNDASVEKDDSHAAKVVERRWYERNKHIYPASMWEVFDVSKNYGRVQKDFFGN | soluble
22 | MGSDKIHHHHHHKTTTAVQLADTFAFMRQKKVLVLDLDPQTNATLALVGEERWEQADERGQTLAHLFLDLLNGTRNFNPERAIVRGASNLNTIPPEVFDQLPESAQYGRVDVLPSSIRLIDVQDRMQDIANRTNYSLSPMAVVQKYIGPLFGRYDYVLIDCPPNLGFITQNGLEVSDHYLIPTIPDRMSTYGIPQIAGKIDELRRDRDLKIRCLGVVVTKFQSNSSQHKQGLEHLPEYLRSAFAYTNEDTPPILNTVMPQTNASAEAMLFERDVRNYPVKYGSGAVAGQAAYKYGLDLAAEVQALLGDEDEA | not soluble
23 | MSQLLKLKSQYDDECTVTRHYEGKGRNAGRLGAVGCKNRHGEFRIGSGFKDKDRDNPPKIGTLITYRYRGFTRKGTPKFATFVRVRTLEHHHHHH | not soluble
24 | MKPRIYVKVKPERLGAVIGPRGEVKAEIMRRTGTVITVDTENSMVIVEPEAEGIPPVNLMKAAEVVKAISLGFPPEKAFRLLEEDQILVVVDLKQVVGDSQNHLKRIKGRIIGEGGRARRTIEEMTDTYINVGEYEVAIIGDYERAMAAKQAIEMLAEGRMHSTVYRHLERIMREIKRRERLKMWAREEL | soluble
